Test results published in PMC5182059.

The binders below were run against myristoylated Gαi1 harboring a hexahistidine tag in the helical domain (rat) (UniProt P10824).
UniProt P10824, sequence (P10824 whole entry, the tested form may be a part): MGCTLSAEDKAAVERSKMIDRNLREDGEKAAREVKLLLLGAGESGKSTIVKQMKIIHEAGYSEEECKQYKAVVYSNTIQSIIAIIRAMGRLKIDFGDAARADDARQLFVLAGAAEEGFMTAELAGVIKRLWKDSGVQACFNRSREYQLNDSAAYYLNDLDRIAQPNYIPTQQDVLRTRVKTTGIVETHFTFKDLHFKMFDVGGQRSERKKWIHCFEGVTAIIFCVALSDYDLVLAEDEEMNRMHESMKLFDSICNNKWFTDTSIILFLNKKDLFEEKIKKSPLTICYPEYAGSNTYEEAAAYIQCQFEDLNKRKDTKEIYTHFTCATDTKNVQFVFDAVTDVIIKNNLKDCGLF

Binder	v1: initial velocity of GDP to GTPγS exchange at Gαi1•GDP (2 μM) on adding GTPγS (10 μM) and Ric-8A (2 μM), tryptophan fluorescence, 25°C	v2: initial rate of GTPγS binding to pre-formed Gαi1:Ric-8A (2 μM each, incubated 5 min before 10 μM GTPγS), with release of Ric-8A, tryptophan fluorescence, 25°C
Ric-8A (1-491) G457A (domain or fragment) MEPRAVADALETGEEDAVTEALRSFNREHSQSFTFDDAQQEDRKRLAKLLVSVLEQGLSPKHRVTWLQTIRILSRDRSCLDSFASRQSLHALACYADIAISEEPIPQPPDMDVLLESLKCLCNLVLSSPTAQMLAAEARLVVRLAERVGLYRKRSYPHEVQFFDLRLLFLLTALRTDVRQQLFQELHGVRLLTDALELTLGVAPKENPLVILPAQETERAMEILKVLFNITYDSVKREVDEEDAALYRYLGTLLRHCVMADAAGDRTEEFHGHTVNLLGNLPLKCLDVLLALELHEGSLEFMGVNMDVINALLAFLEKRLHQTHRLKECVAPVLSVLTECARMHRPARKFLKAQVLPPLRDVRTRPEVGDLLRNKLVRLMTHLDTDVKRVAAEFLFVLCSESVPRFIKYTGYGNAAGLLAARGLMAGGRPEGQYSEDEDTDTEEYREAKASINPVTARVEEKPPNPMEGMTEEQKEHEAMKLVNMFDKLSR	3.47 µM/min	6.02 µM/min
Ric-8A (1-491) R458A (domain or fragment) MEPRAVADALETGEEDAVTEALRSFNREHSQSFTFDDAQQEDRKRLAKLLVSVLEQGLSPKHRVTWLQTIRILSRDRSCLDSFASRQSLHALACYADIAISEEPIPQPPDMDVLLESLKCLCNLVLSSPTAQMLAAEARLVVRLAERVGLYRKRSYPHEVQFFDLRLLFLLTALRTDVRQQLFQELHGVRLLTDALELTLGVAPKENPLVILPAQETERAMEILKVLFNITYDSVKREVDEEDAALYRYLGTLLRHCVMADAAGDRTEEFHGHTVNLLGNLPLKCLDVLLALELHEGSLEFMGVNMDVINALLAFLEKRLHQTHRLKECVAPVLSVLTECARMHRPARKFLKAQVLPPLRDVRTRPEVGDLLRNKLVRLMTHLDTDVKRVAAEFLFVLCSESVPRFIKYTGYGNAAGLLAARGLMAGGRPEGQYSEDEDTDTEEYREAKASINPVTGAVEEKPPNPMEGMTEEQKEHEAMKLVNMFDKLSR	0.63 µM/min	0.37 µM/min
Ric-8A (1-491) K462A (domain or fragment) MEPRAVADALETGEEDAVTEALRSFNREHSQSFTFDDAQQEDRKRLAKLLVSVLEQGLSPKHRVTWLQTIRILSRDRSCLDSFASRQSLHALACYADIAISEEPIPQPPDMDVLLESLKCLCNLVLSSPTAQMLAAEARLVVRLAERVGLYRKRSYPHEVQFFDLRLLFLLTALRTDVRQQLFQELHGVRLLTDALELTLGVAPKENPLVILPAQETERAMEILKVLFNITYDSVKREVDEEDAALYRYLGTLLRHCVMADAAGDRTEEFHGHTVNLLGNLPLKCLDVLLALELHEGSLEFMGVNMDVINALLAFLEKRLHQTHRLKECVAPVLSVLTECARMHRPARKFLKAQVLPPLRDVRTRPEVGDLLRNKLVRLMTHLDTDVKRVAAEFLFVLCSESVPRFIKYTGYGNAAGLLAARGLMAGGRPEGQYSEDEDTDTEEYREAKASINPVTGRVEEAPPNPMEGMTEEQKEHEAMKLVNMFDKLSR	4.46 µM/min	5.15 µM/min
Ric-8A (1-491) E461A (domain or fragment) MEPRAVADALETGEEDAVTEALRSFNREHSQSFTFDDAQQEDRKRLAKLLVSVLEQGLSPKHRVTWLQTIRILSRDRSCLDSFASRQSLHALACYADIAISEEPIPQPPDMDVLLESLKCLCNLVLSSPTAQMLAAEARLVVRLAERVGLYRKRSYPHEVQFFDLRLLFLLTALRTDVRQQLFQELHGVRLLTDALELTLGVAPKENPLVILPAQETERAMEILKVLFNITYDSVKREVDEEDAALYRYLGTLLRHCVMADAAGDRTEEFHGHTVNLLGNLPLKCLDVLLALELHEGSLEFMGVNMDVINALLAFLEKRLHQTHRLKECVAPVLSVLTECARMHRPARKFLKAQVLPPLRDVRTRPEVGDLLRNKLVRLMTHLDTDVKRVAAEFLFVLCSESVPRFIKYTGYGNAAGLLAARGLMAGGRPEGQYSEDEDTDTEEYREAKASINPVTGRVEAKPPNPMEGMTEEQKEHEAMKLVNMFDKLSR	7.45 µM/min	5.06 µM/min
Ric-8A (1-491), rat (Resistance to Inhibitors of Cholinesterase 8A) (domain or fragment) MEPRAVADALETGEEDAVTEALRSFNREHSQSFTFDDAQQEDRKRLAKLLVSVLEQGLSPKHRVTWLQTIRILSRDRSCLDSFASRQSLHALACYADIAISEEPIPQPPDMDVLLESLKCLCNLVLSSPTAQMLAAEARLVVRLAERVGLYRKRSYPHEVQFFDLRLLFLLTALRTDVRQQLFQELHGVRLLTDALELTLGVAPKENPLVILPAQETERAMEILKVLFNITYDSVKREVDEEDAALYRYLGTLLRHCVMADAAGDRTEEFHGHTVNLLGNLPLKCLDVLLALELHEGSLEFMGVNMDVINALLAFLEKRLHQTHRLKECVAPVLSVLTECARMHRPARKFLKAQVLPPLRDVRTRPEVGDLLRNKLVRLMTHLDTDVKRVAAEFLFVLCSESVPRFIKYTGYGNAAGLLAARGLMAGGRPEGQYSEDEDTDTEEYREAKASINPVTGRVEEKPPNPMEGMTEEQKEHEAMKLVNMFDKLSR	3.84 µM/min	4.66 µM/min
Ric-8A (1-491) P464A (domain or fragment) MEPRAVADALETGEEDAVTEALRSFNREHSQSFTFDDAQQEDRKRLAKLLVSVLEQGLSPKHRVTWLQTIRILSRDRSCLDSFASRQSLHALACYADIAISEEPIPQPPDMDVLLESLKCLCNLVLSSPTAQMLAAEARLVVRLAERVGLYRKRSYPHEVQFFDLRLLFLLTALRTDVRQQLFQELHGVRLLTDALELTLGVAPKENPLVILPAQETERAMEILKVLFNITYDSVKREVDEEDAALYRYLGTLLRHCVMADAAGDRTEEFHGHTVNLLGNLPLKCLDVLLALELHEGSLEFMGVNMDVINALLAFLEKRLHQTHRLKECVAPVLSVLTECARMHRPARKFLKAQVLPPLRDVRTRPEVGDLLRNKLVRLMTHLDTDVKRVAAEFLFVLCSESVPRFIKYTGYGNAAGLLAARGLMAGGRPEGQYSEDEDTDTEEYREAKASINPVTGRVEEKPANPMEGMTEEQKEHEAMKLVNMFDKLSR	2.83 µM/min	4.73 µM/min
Ric-8A (1-491) V459A (domain or fragment) MEPRAVADALETGEEDAVTEALRSFNREHSQSFTFDDAQQEDRKRLAKLLVSVLEQGLSPKHRVTWLQTIRILSRDRSCLDSFASRQSLHALACYADIAISEEPIPQPPDMDVLLESLKCLCNLVLSSPTAQMLAAEARLVVRLAERVGLYRKRSYPHEVQFFDLRLLFLLTALRTDVRQQLFQELHGVRLLTDALELTLGVAPKENPLVILPAQETERAMEILKVLFNITYDSVKREVDEEDAALYRYLGTLLRHCVMADAAGDRTEEFHGHTVNLLGNLPLKCLDVLLALELHEGSLEFMGVNMDVINALLAFLEKRLHQTHRLKECVAPVLSVLTECARMHRPARKFLKAQVLPPLRDVRTRPEVGDLLRNKLVRLMTHLDTDVKRVAAEFLFVLCSESVPRFIKYTGYGNAAGLLAARGLMAGGRPEGQYSEDEDTDTEEYREAKASINPVTGRAEEKPPNPMEGMTEEQKEHEAMKLVNMFDKLSR	5.65 µM/min	6.85 µM/min
Ric-8A (1-491) P463A (domain or fragment) MEPRAVADALETGEEDAVTEALRSFNREHSQSFTFDDAQQEDRKRLAKLLVSVLEQGLSPKHRVTWLQTIRILSRDRSCLDSFASRQSLHALACYADIAISEEPIPQPPDMDVLLESLKCLCNLVLSSPTAQMLAAEARLVVRLAERVGLYRKRSYPHEVQFFDLRLLFLLTALRTDVRQQLFQELHGVRLLTDALELTLGVAPKENPLVILPAQETERAMEILKVLFNITYDSVKREVDEEDAALYRYLGTLLRHCVMADAAGDRTEEFHGHTVNLLGNLPLKCLDVLLALELHEGSLEFMGVNMDVINALLAFLEKRLHQTHRLKECVAPVLSVLTECARMHRPARKFLKAQVLPPLRDVRTRPEVGDLLRNKLVRLMTHLDTDVKRVAAEFLFVLCSESVPRFIKYTGYGNAAGLLAARGLMAGGRPEGQYSEDEDTDTEEYREAKASINPVTGRVEEKAPNPMEGMTEEQKEHEAMKLVNMFDKLSR	2.9 µM/min	4.78 µM/min
Ric-8A (1-491) N465A (domain or fragment) MEPRAVADALETGEEDAVTEALRSFNREHSQSFTFDDAQQEDRKRLAKLLVSVLEQGLSPKHRVTWLQTIRILSRDRSCLDSFASRQSLHALACYADIAISEEPIPQPPDMDVLLESLKCLCNLVLSSPTAQMLAAEARLVVRLAERVGLYRKRSYPHEVQFFDLRLLFLLTALRTDVRQQLFQELHGVRLLTDALELTLGVAPKENPLVILPAQETERAMEILKVLFNITYDSVKREVDEEDAALYRYLGTLLRHCVMADAAGDRTEEFHGHTVNLLGNLPLKCLDVLLALELHEGSLEFMGVNMDVINALLAFLEKRLHQTHRLKECVAPVLSVLTECARMHRPARKFLKAQVLPPLRDVRTRPEVGDLLRNKLVRLMTHLDTDVKRVAAEFLFVLCSESVPRFIKYTGYGNAAGLLAARGLMAGGRPEGQYSEDEDTDTEEYREAKASINPVTGRVEEKPPAPMEGMTEEQKEHEAMKLVNMFDKLSR	2.25 µM/min	4.56 µM/min
Ric-8A (1-491) E460A (domain or fragment) MEPRAVADALETGEEDAVTEALRSFNREHSQSFTFDDAQQEDRKRLAKLLVSVLEQGLSPKHRVTWLQTIRILSRDRSCLDSFASRQSLHALACYADIAISEEPIPQPPDMDVLLESLKCLCNLVLSSPTAQMLAAEARLVVRLAERVGLYRKRSYPHEVQFFDLRLLFLLTALRTDVRQQLFQELHGVRLLTDALELTLGVAPKENPLVILPAQETERAMEILKVLFNITYDSVKREVDEEDAALYRYLGTLLRHCVMADAAGDRTEEFHGHTVNLLGNLPLKCLDVLLALELHEGSLEFMGVNMDVINALLAFLEKRLHQTHRLKECVAPVLSVLTECARMHRPARKFLKAQVLPPLRDVRTRPEVGDLLRNKLVRLMTHLDTDVKRVAAEFLFVLCSESVPRFIKYTGYGNAAGLLAARGLMAGGRPEGQYSEDEDTDTEEYREAKASINPVTGRVAEKPPNPMEGMTEEQKEHEAMKLVNMFDKLSR	6.54 µM/min	5.36 µM/min
